Laboratory results taken from patent US20200369755A1 (PROTHENA BIOSCIENCES, published 2020).
Residue numbers refer to the chain shown, from its start. Numbers in names are those of the source.

B1: 5G8 (antibody, V domains shown)
VH: EVQLQQSGAELVRSGASVRLSCTASGFNIKDYYMHWVRQRPEQGLEWIGWIDPENGDTVYAPKFQGKATMTSDTSSNTAYLHLSSLTSEDTAVYYCSPLDFWGQGTTLTVSS
VL: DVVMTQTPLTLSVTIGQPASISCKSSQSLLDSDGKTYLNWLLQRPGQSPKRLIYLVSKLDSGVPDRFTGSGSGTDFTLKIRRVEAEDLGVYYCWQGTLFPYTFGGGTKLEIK
B2: hu3D6VHv1bA11/hu3D6VLv2 (antibody, V domains shown)
VH: EVQLVQSGAEVVKPGATVKISCKASGFNIKDYYLHWVRQRPGQGLEWIGWIDPENGDTVYDPKFQGRATITADTSTDTAYLQLGSLTSEDTAVYFCSTLDFWGQGTLVTVSS
VL: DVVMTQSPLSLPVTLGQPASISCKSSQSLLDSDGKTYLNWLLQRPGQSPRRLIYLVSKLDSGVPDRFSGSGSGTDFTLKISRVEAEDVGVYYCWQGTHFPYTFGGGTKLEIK
notes: Humanized antibody expressed in 293 cells, captured by anti-human Fc; also called parental hu3D6VHv1bA11/hu3D6VLv2; h3D6Hu5 heavy chain variable region
B3: h3D6VHvb8/L2-DIM8 (antibody, V domains shown)
VH: B2 VH with D61E
VL: DVVMTQSPLSLPVTLGQPASISCKSSQSLLDSDGKTYLNWLQQRPGQSPRRLIYLVSKLDSGVPDRFSGSGSGTDFTLKISRVEAEDVGVYYCWQGTHFPYTFGGGTKLEIK
notes: Humanized antibody with human Fc; also called hu3D6VHv1bA11 D60E / hu3D6VLv2 L37Q
B4: hu3D6VHv1bA11/L2-DIM5 (antibody, V domains shown)
VH: B2 VH
VL: B3 VL with S57G, L59T
notes: Humanized antibody with human Fc
B5: hu3D6VHv1bA11/L2-DIM20 (antibody, V domains shown)
VH: B2 VH
VL: B3 VL with L55E, L59R
notes: as for B4
B6: hu3D6VHv1bA11/L2-DIM4 (antibody, V domains shown)
VH: B2 VH
VL: B3 VL with S57G, L59R
B7: h3D6VHvb8/L2-DIM4 (antibody, V domains shown)
VH: B2 VH with D61E
VL: B3 VL with S57G, L59R
notes: as for B4
B8: hu3D6VHv1bA11/L2-DIM9 (antibody, V domains shown)
VH: B2 VH
VL: B3 VL with Q42L, S57G
notes: Humanized antibody with human Fc; also called hu3D6VHv1bA11 / hu3D6VLv2 S52G
B9: hu3D6VHv1bA11/L2-DIM3 (antibody, V domains shown)
VH: B2 VH
VL: B3 VL with S57G, L59G
notes: as for B4
B10: hu3D6VHv1bA11/L2-DIM18 (antibody, V domains shown)
VH: B2 VH
VL: B3 VL with L55D, L59R
notes: as for B4
B11: hu3D6VHv1bA11/L2-DIM19 (antibody, V domains shown)
VH: B2 VH
VL: B3 VL with L55E, L59G
notes: as for B4
B12: h3D6VHvb8/L2-DIM6 (antibody, V domains shown)
VH: B2 VH with D61E
VL: B3 VL with S57G, L59D
notes: as for B4
B13: hu3D6VHv1bA11/L2-DIM17 (antibody, V domains shown)
VH: B2 VH
VL: B3 VL with L55D, L59G
notes: as for B4
B14: hu3D6VHv1bA11/L2-DIM12 (antibody, V domains shown)
VH: B2 VH
VL: B3 VL with L59D
notes: as for B4
B15: hu3D6VHv1bA11/L2-DIM7 (antibody, V domains shown)
VH: B2 VH
VL: B3 VL with Q42L, L59G
notes: Humanized antibody with human Fc; also called hu3D6VHv1bA11 / hu3D6VLv2 L54G
B16: hu3D6VHv1bA11/L2-DIM6 (antibody, V domains shown)
VH: B2 VH
VL: B3 VL with S57G, L59D
notes: as for B4
B17: hu3D6VHv1bA11/L2-DIM21 (antibody, V domains shown)
VH: B2 VH
VL: B3 VL with Q42L, L59D
notes: Humanized antibody with human Fc; also called hu3D6VHv1bA11 / hu3D6VLv2 L54D
B18: hu3D6VHv1bA11/L2-DIM14 (antibody, V domains shown)
VH: B2 VH
VL: B3 VL with L55D
notes: as for B4
B19: hu3D6VHv1bA11/L2-DIM22 (antibody, V domains shown)
VH: B2 VH
VL: B3 VL with Q42L, L55G
notes: Humanized antibody with human Fc; also called hu3D6VHv1bA11 / hu3D6VLv2 L50G
B20: hu3D6VHv1bA11/L2-DIM13 (antibody, V domains shown)
VH: B2 VH
VL: B3 VL with L55G
notes: as for B4
B21: h3D6VHvb8/L2-DIM7 (antibody, V domains shown)
VH: B2 VH with D61E
VL: B3 VL with Q42L, L59G
notes: Humanized antibody with human Fc; also called hu3D6VHv1bA11 D60E / hu3D6VLv2 L54G
B22: 8A4 (antibody, V domains shown)
VH: EVQLQQSGAELVRPGALVKLSCKASGFNIKDYYIHWVKQRPEQGLEWIGWIDPENGDTVYDPQFQDKANITADTSSNTAYLQLSSLTSEGTAVYYCSTLDFWGQGTTLTVSS
VL: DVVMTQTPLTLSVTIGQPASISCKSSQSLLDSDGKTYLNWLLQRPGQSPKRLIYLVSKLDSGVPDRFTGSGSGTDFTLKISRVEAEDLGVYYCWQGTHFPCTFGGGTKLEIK

Experiments:
recombinant human tau = recombinant human tau (human, UniProt P10636 1-383); assay: SPR (Biacore T200): antibody captured on an anti-mouse chip, recombinant human tau 10-0.14 nM as analyte, global 1:1 fit
recombinant human tau, sequence (P10636 other isoform, or with tags, fused parts or gaps): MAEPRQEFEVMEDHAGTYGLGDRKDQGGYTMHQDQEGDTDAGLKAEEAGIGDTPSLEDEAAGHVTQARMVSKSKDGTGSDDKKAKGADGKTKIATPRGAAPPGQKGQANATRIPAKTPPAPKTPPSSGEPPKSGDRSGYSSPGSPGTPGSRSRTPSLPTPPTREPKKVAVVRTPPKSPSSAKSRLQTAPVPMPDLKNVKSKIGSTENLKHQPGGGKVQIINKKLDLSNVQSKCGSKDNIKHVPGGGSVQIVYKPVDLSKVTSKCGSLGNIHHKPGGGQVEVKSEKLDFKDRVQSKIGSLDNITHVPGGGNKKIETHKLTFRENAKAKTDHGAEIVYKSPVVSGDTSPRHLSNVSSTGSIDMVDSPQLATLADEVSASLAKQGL
Description: Methods: SPR analysis was performed using a Biacore T200 to determine the binding kinetics of murine antibodies to recombinant human tau. To prepare a sensor surface, anti-mouse antibody (GE Life Sciences) was immobilized on sensor chip CM5 via amine coupling, and antibody was captured at a level to ensure maximum binding of 50 RU. Various concentrations of recombinant tau ranging from 10-0.14 nM were passed over the captured ligand at a flow rate of 50 μL/min in running buffer (HBS+0.05% P-20, 1 mg/mL BSA), for 180 sec association and 900 sec dissociation. Data were double-referenced to both an irrelevant sensor not containing antibody ligand, and 0 nM analyte concentration to account for the dissociation of ligand from the capture moiety. Data was then analyzed using a global 1:1 fit.

[1] = biological target: T1, recombinant human 4R0N tau (human, UniProt P10636 2-758); assay: SPR, Biacore T200, antibody captured on anti-human Fc, tau as analyte, 1:1 fit
T1 construct: also called P10636-6
T1 sequence (P10636 other isoform, or with tags, fused parts or gaps limits assumed): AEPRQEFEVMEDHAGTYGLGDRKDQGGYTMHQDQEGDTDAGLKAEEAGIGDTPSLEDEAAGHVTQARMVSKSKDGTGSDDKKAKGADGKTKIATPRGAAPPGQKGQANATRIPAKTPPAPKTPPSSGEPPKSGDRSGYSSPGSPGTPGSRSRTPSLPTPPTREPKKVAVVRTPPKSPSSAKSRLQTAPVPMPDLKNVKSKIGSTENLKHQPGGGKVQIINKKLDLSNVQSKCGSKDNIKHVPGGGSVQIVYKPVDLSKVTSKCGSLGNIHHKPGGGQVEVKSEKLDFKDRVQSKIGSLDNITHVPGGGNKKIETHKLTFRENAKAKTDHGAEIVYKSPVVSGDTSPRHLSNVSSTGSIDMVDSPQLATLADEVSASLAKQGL
Description: Target binding analysis was performed using a Biacore T200 to compare the binding affinity of humanized 3D6 variants to recombinant human 4R0N tau. Anti-Human Fc antibody was immobilized on sensor chip CM3 via amine coupling, and humanized 3D6 variants were captured to equivalent levels. […] Data was blank subtracted to both an irrelevant sensor not containing antibody and 0 nM analyte concentration. Analysis was performed using a global 1:1 fit with Biacore Evaluation software.

4R tau fibrils = biological target: T2, 4R tau fibrils (UniProt P10636-6 1-383, limits assumed); assay: ELISA, biotinylated antibody on plate-coated preformed fibrils, 4-parameter fit
T2 construct: Fibrils pelleted at 100,000 x g and coated on ELISA plates; also called fibrillar tau; recombinant tau fibrils of 4-repeat tau
T2 sequence (P10636 other isoform, or with tags, fused parts or gaps limits assumed): as the sequence (P10636 other isoform, or with tags, fused parts or gaps) above
Description: (§1) ELISA plates were coated with preformed fibrils (overnight at 4° C. in 50 mM carbonate-bicarbonate buffer, pH 9.6), washed, and blocked with 1% BSA in PBS. After blocking, plates were incubated with the indicated concentrations of biotinylated primary antibody in 0.1% BSA/PBS for 1h at room temperature. Plates were washed, and then incubated with streptavidin-HRP in 0.1% BSA/PBS for 45 min. Plates were then washed and developed with OPD, and absorbance was measured at 490 nm. Binding curves were analyzed using a 4-parameter log fit.

[2] = biological target: T3, mixed fibrils of 3-repeat and 4-repeat tau (UniProt P10636 1-352; P10636 1-383, limits assumed); assay: ELISA on plates coated with preformed mixed 3R/4R tau fibrils, biotinylated antibody, streptavidin-HRP, OPD, A490 [binding to mixed fibrils]
T3 construct: Made by seeded growth of 3-repeat and 4-repeat tau; also called fibrils containing both 3R and 4R tau
T3 sequence (P10636 other isoform, or with tags, fused parts or gaps limits assumed, chain 1 of 2): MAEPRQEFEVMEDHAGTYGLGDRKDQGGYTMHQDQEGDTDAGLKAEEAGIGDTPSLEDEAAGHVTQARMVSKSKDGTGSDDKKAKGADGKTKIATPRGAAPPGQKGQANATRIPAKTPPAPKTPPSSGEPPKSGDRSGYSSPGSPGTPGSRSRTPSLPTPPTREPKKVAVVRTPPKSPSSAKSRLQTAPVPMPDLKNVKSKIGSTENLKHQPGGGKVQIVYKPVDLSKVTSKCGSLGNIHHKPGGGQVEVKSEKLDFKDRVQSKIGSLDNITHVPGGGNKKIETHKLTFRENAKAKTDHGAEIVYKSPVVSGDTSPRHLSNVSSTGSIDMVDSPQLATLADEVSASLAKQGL
T3 sequence (P10636 other isoform, or with tags, fused parts or gaps limits assumed, chain 2 of 2): as the sequence (P10636 other isoform, or with tags, fused parts or gaps) above
Description: as §1

[3] = biological target: biotinylated recombinant tau (UniProt P10636-6 1-383, limits assumed, biotinylated); assay: competition ELISA: inhibition of biotinylated tau binding to plate-bound low molecular weight heparin
biotinylated recombinant tau, sequence (P10636 other isoform, or with tags, fused parts or gaps limits assumed): as the sequence (P10636 other isoform, or with tags, fused parts or gaps) above
Description: To test the ability of murine and humanized 3D6 variants to interrupt tau interaction with heparin, ELISA plates coated with low molecular weight heparin were first blocked with 2% BSA in PBS for 2h at room temperature. Plates were washed with TBST. After blocking, plates were incubated with biotinylated recombinant tau along with indicated concentrations of unlabeled antibody in 1% BSA/PBS for one hour at room temperature. Plates were again washed, and then incubated with streptavidin-HRP in 0.1% BSA/PBS for 45 min. Plates were then washed and developed with OPD, and absorbance was measured at 490 nm. Inhibition curves were analyzed using a 4-parameter log fit.

Binder	Kd [1]	koff [1]	kon [1]	further results
B1				Kd (recombinant human tau): 6.78 nM; koff (recombinant human tau): 0.00254 s⁻¹; kon (recombinant human tau): 375000 M⁻¹ s⁻¹
B2	0.181 nM	0.00074 s⁻¹	4.17e+06 M⁻¹ s⁻¹	EC50 (4R tau fibrils): 0.237 nM; EC50 (read off the curve) [2]: ~0.9 nM; IC50 [3]: 0.565 nM
B3	0.427 nM	0.0014 s⁻¹	3.28e+06 M⁻¹ s⁻¹	
B4	0.183 nM	0.000735 s⁻¹	4.02e+06 M⁻¹ s⁻¹	
B5	36 nM	0.00935 s⁻¹	260000 M⁻¹ s⁻¹	
B6	0.0948 nM	0.000535 s⁻¹	5.65e+06 M⁻¹ s⁻¹	EC50 (4R tau fibrils): 0.192 nM; EC50 (read off the curve) [2]: ~0.7 nM; IC50 [3]: 0.423 nM
B7	0.226 nM	0.00102 s⁻¹	4.51e+06 M⁻¹ s⁻¹	
B8	0.16 nM	0.00074 s⁻¹	4.63e+06 M⁻¹ s⁻¹	
B9	0.199 nM	0.000781 s⁻¹	3.93e+06 M⁻¹ s⁻¹	
B10	2.51 nM	0.00378 s⁻¹	1.51e+06 M⁻¹ s⁻¹	
B11	1.79 nM	5.88 s⁻¹		
B12	1.5 nM	5.67 s⁻¹		
B13	1.03 nM			
B14	0.485 nM	0.00133 s⁻¹	2.74e+06 M⁻¹ s⁻¹	
B15	0.281 nM	0.000971 s⁻¹	3.46e+06 M⁻¹ s⁻¹	
B16	1.49 nM	0.00461 s⁻¹	3.08e+06 M⁻¹ s⁻¹	
B17	0.696 nM	0.00149 s⁻¹	2.15e+06 M⁻¹ s⁻¹	
B18	1.53 nM			
B19	0.708 nM	0.00251 s⁻¹	3.54e+06 M⁻¹ s⁻¹	
B20	0.904 nM	0.00285 s⁻¹	3.15e+06 M⁻¹ s⁻¹	
B21	0.275 nM	0.00119 s⁻¹	4.31e+06 M⁻¹ s⁻¹	
B22				Kd (recombinant human tau): 3.8 nM; koff (recombinant human tau): 0.00227 s⁻¹; kon (recombinant human tau): 599000 M⁻¹ s⁻¹
